Changes are numbered by the printed parent chain. Names may count otherwise. One block for each binder: values may come before it.
Key:
[1] = biological target: T1, human FcRn (soluble human FcRn complexed with β2-microglobulin) (human, UniProt P61769 21-119, limits assumed); assay: SPR, antibody captured by Protein L, human FcRn as analyte, pH 7.0, 25 C
T1 construct: also called hFcRn

[2] = biological target: T2, human FcγRIa (human, UniProt P12314 16-292, limits assumed); assay: SPR, antibody captured by Protein L, human FcγR as analyte, pH 7.4, 25 C;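 also: biacore T100 or T200 with Protein L amine-coupled on a CM4 chip, FcγRs diluted in ACES saline with polysorbate 20, buffer-only injection as blank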
T2 construct: also called hFcgRIa; hFcgRI

[3] = biological target: T3, human FcγRIIb (human, UniProt P31994 43-217, limits assumed); assay: as above
T3 construct: also called hFcgRIIb; FcγIIB
T3 sequence: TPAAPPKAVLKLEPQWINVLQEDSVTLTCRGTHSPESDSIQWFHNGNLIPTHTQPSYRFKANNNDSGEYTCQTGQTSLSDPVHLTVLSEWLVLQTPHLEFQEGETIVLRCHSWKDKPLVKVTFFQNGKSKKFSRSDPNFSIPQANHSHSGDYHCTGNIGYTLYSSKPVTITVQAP

[4] = biological target: T4, human FcγRIIa(R) (human, UniProt P12318 36-217); assay: as above
T4 construct: also called hFcgRIIa(R); FcγRIIa type R
T4 chain: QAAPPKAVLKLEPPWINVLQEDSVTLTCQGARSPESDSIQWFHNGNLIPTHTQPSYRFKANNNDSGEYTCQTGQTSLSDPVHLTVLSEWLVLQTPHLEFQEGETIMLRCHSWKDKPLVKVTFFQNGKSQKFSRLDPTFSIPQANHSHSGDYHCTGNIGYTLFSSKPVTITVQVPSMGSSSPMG

[5] = biological target: T5, human FcγRIIa(H) (human, UniProt P12318 36-217); assay: as above
T5 construct: also called hFcgRIIa(H); FcγRIIa type H
T5 sequence: T4 chain with R133H

[6] = biological target: T6, human FcγRIIIa(V) (human, UniProt P08637 17-208, limits assumed); assay: as above
T6 construct: also called hFcgRIIIa(V); allotype V158

[7] = biological target: T3, human FcγRIIb; assay: SPR (Biacore), amount of FcγRIIb bound to the captured antibody, relative to GpH7-B3/GpL16-k0 = 100

T2 sequence (P12314 16-292 limits assumed): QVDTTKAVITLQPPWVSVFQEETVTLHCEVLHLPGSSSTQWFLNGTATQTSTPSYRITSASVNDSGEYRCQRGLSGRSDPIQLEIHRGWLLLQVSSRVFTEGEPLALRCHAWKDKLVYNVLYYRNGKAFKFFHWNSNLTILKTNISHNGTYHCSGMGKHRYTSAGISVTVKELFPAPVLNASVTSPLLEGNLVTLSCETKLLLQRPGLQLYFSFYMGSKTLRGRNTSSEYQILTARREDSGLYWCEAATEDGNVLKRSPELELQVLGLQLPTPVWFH
T6 sequence (P08637 other isoform, or with tags, fused parts or gaps limits assumed): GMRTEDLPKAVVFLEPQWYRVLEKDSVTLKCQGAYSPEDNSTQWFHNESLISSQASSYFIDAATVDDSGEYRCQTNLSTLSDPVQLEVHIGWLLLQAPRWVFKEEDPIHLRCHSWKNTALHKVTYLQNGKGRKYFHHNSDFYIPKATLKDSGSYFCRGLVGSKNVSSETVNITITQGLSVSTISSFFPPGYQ

Kd [1]: 14 nM
BINDING AMOUNT (RU) [2]: 0.87 RU
BINDING AMOUNT (RU) [3]: 0.74 RU
BINDING AMOUNT (RU) [4]: -0.2 RU
BINDING AMOUNT (RU) [5]: -1.14 RU
BINDING AMOUNT (RU) [6]: -0.6 RU
B1: antibody with VH3-IgG1-F1327 heavy chain and L(WT)-CK light chain (antibody)
heavy: QVQLQESGPGLVKPSETLSLTCAVSGHSISHDHAWSWVRQPPGEGLEWIGFISYSGITNYNPSLQGRVTISRDNSKNTLYLQMNSLRAEDTAVYYCARSLARTTAMDYWGEGTLVTVSSASTKGPSVFPLAPSSKSTSGGTAALGCLVKDYFPEPVTVSWNSGALTSGVHTFPAVLQSSGLYSLSSVVTVPSSSLGTQTYICNVNHKPSNTKVDKKVEPKSCDKTHTCPPCPAPEAAGGPSVFLFPPKPKDVLYISRTPEVTCVVVDVSHEDPEVKFNWYVDGVEVHNAKTKPREEQYASTYRVVSVLQPLHADWLNGKEYKCKVSNKALPAPIEKTISKAKGQPREPQVYTLPPSRDELTKNQVSLTCLVKGFYPSDIAVEWESNGQPENNYKTTPPVLDSDGSFFLYSKLTVDKSRWQQGNVFSCSVMHEALHYHVTQKSLSLSP
light: not shown
notes: L234A/L235A/N297A on VH3-IgG1-F947; copies: 2 + 2

binding result [7]: binds
B3: S239D (antibody)
heavy: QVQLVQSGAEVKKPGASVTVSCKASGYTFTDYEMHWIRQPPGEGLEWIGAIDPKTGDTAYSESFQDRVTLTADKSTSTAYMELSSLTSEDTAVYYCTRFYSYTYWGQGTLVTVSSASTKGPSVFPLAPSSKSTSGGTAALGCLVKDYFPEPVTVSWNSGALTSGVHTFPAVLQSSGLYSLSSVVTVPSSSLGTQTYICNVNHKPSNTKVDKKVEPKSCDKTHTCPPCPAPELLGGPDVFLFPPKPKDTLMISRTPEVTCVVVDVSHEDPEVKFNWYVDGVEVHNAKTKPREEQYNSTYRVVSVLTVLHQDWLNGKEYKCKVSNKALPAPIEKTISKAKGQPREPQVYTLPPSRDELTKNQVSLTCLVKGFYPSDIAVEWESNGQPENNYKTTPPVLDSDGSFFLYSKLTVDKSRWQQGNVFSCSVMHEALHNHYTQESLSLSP
light: DIVMTQSPLSLPVTPGEPASISCQASESLVHSNRNTYLHWYLQKPGQSPQLLIYKVSNRFSGVPDRFSGSGSGTDFTLKISRVEAEDVGVYYCSQNTHVPPTFGQGTKVEIERTVAAPSVFIFPPSDEQLKSGTASVVCLLNNFYPREAKVQWKVDNALQSGNSQESVTEQDSKDSTYSLSSTLTLSKADYEKHKVYACEVTHQGLSSPVTKSFNRGEC
notes: also called GpH7-B3 variant S239D/GpL16-k0; copies: 2 + 2

binding result [7]: binds
B4: G237W (antibody)
heavy: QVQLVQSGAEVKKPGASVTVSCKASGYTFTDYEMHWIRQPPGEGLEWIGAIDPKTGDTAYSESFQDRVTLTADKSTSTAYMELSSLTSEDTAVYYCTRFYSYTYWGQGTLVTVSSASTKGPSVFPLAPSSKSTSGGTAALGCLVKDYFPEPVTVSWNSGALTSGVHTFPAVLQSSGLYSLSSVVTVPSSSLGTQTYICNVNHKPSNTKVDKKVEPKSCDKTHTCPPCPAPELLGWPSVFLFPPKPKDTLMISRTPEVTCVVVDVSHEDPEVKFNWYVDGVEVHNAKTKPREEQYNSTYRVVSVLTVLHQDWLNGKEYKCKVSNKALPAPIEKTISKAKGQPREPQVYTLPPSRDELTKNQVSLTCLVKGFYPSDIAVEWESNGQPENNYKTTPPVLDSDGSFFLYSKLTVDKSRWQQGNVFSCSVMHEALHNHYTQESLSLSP
light: B3 light
notes: also called GpH7-B3 variant G237W/GpL16-k0; copies: 2 + 2

Further lines, the binder ahead of its results:

B2: G237F (antibody)
heavy: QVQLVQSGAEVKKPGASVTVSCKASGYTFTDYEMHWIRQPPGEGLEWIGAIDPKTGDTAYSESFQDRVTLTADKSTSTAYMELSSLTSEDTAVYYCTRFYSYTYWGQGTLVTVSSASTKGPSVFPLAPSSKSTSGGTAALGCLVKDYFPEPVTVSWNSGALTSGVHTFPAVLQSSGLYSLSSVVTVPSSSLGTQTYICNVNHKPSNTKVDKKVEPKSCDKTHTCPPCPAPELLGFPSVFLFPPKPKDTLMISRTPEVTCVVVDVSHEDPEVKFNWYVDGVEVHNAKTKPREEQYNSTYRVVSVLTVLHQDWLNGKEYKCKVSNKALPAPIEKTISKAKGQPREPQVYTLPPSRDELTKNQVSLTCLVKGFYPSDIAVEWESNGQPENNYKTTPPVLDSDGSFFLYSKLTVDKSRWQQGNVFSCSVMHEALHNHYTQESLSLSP
light: B3 light
notes: also called GpH7-B3 variant G237F/GpL16-k0; copies: 2 + 2
binding result [7]: binds

B5: L234Y (antibody)
heavy: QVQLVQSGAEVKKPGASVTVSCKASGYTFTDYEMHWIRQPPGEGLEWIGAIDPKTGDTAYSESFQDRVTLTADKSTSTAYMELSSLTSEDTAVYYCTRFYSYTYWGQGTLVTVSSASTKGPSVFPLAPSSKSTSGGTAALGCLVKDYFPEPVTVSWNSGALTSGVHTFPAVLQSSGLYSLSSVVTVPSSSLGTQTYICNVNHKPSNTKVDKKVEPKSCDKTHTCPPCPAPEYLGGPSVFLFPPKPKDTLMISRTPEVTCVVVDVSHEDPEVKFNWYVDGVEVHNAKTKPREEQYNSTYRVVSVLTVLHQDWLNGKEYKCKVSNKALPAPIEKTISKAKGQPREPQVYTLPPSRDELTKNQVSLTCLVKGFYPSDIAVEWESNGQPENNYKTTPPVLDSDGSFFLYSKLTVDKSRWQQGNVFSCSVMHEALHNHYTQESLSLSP
light: B3 light
notes: also called GpH7-B3 variant L234Y/GpL16-k0; copies: 2 + 2
binding result [7]: binds

From US20200199241A1 (Chugai, published 2020)
